The record followed here is patent CN111995685A (SHANGHAI INST MATERIA MEDICA CAS; UNIV XIAMEN, dated 2020).

Test [1] deals with T1, 抗原人源PD-1蛋白 (human, UniProt Q15116 25-167, limits assumed).
T1 construct: The construct is not described; also called 抗原PD-1; 抗原PD-1蛋白
Put plainly: ELISA (binding and PD-L1 blocking) and BLI with PD-1 antigen, IgG format. A general note: An ELISA detects its analyte on a solid surface through an enzyme-linked reagent.

In test [2] the target is T1, 抗原人源PD-1蛋白. The experiment in a line: ELISA of humanised Fab phage clones on PD-1 antigen.

T1 sequence (Q15116 25-167 limits assumed): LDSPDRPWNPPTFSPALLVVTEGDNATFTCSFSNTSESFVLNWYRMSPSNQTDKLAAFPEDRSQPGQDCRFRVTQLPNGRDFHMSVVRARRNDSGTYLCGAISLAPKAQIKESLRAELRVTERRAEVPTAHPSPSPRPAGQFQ

B1: T16# (antibody, V domains shown)
VH: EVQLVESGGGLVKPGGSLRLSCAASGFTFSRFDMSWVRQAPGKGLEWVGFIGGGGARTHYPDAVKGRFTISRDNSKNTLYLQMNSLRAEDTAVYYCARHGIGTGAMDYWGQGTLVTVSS
VL: ETTLTQSPAFMSATPGDKVNISCRASKSVDNYGYSFMHWYQQKPGQAPRLLIYRSANLASGVPDRFSGSGSGTDFTLKISRVEAEDVGVYYCQQSNEDPTFGGGTKLEIK
notes: also called 抗PD-1单抗T16#
Turning to B1, the binding result with 抗原人源PD-1蛋白 [1] is reported as “binds”.

B2: T82# (antibody, V domains shown)
VH: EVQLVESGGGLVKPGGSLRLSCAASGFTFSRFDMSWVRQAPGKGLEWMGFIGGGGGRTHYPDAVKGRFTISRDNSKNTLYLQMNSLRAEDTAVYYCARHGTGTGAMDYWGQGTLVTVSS
VL: DIQMTQSPSTLSASVGDRVTISCRASKSVDNYGYSFMHWYQQKPGQAPRLLIYRSANLASGVPDRFSGSGSGTDFTLTISSLQAEDVAVYYCQQSNEDPTFGGGTKLEIK
notes: also called 抗PD-1单抗T82#
As for B2, in the test with 抗原人源PD-1蛋白 [1], the binding result is reported as “binds”.

B3: T1# (antibody, V domains shown)
VH: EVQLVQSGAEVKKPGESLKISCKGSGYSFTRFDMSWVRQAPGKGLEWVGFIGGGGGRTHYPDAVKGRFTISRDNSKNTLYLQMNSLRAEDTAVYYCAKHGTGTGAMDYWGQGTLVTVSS
VL: EIVLTQSPGTLSLSPGERATLSCRASKSVDNYGYSFMHWYQQKPGQAPRLLIYRSANLASGVPSRFSGSGSGTDFTLTINSLEAEDAATYYCQQSNEDPTFGGGTKVEIK
notes: also called 抗PD-1单抗T1#; 人源化PD-1抗体T1#
Consider B3, for which, in the test with 抗原人源PD-1蛋白 [2], the binding result was “binds”.
